Assay results from PMC3936608 (Pain, 2013).

Target: the molecule itself
Experiment: SDS-PAGE + SEC

B1: Rat artemin (113 amino acids) (ligand, UniProt Q6AYE8 112-224, looked up)
chain: AGTRSSRARATDARGCRLRSQLVPVSALGLGHSSDELIRFRFCSGSCRRARSPHDLSLASLLDAGALRSPPGSRPISQPCCRPTRYEAVSFMDVNSTWRTVDHLSATACGCLG
stoichiometry N: 2
